The record followed here is publication PMC6341091.

The nature of data set [1]: western blot of total FOXP3, HEK 293. Particulars: control: no OGT/OGA overexpression or no inhibitor.
Data set [2] can be described thus: CHX chase, HEK 293, western blot. Particulars: control: no OGT/OGA overexpression or no inhibitor.
The nature of data set [3]: retroviral transduction of CD4+CD25- T cells, FOXP3 MFI. Particulars: glycan lost; control: wild-type FOXP3.
Data set [4] in a line: CHX chase, HEK 293, OGT overexpression, western blot. Particulars: glycan lost; control: wild-type FOXP3. Background: Immunoblotting shows a protein as a band on a membrane.
The nature of data set [5]: not described in main text (Supplementary Fig. 2F). Particulars: glycan lost; control: wild-type FOXP3.

B1: FOXP3: TMG (protein)
parent chain: MPNPRPAKPMAPSLALGPSPGVLPSWKTAPKGSELLGTRGSGGPFQGRDLRSGAHTSSSLNPLPPSQLQLPTVPLVMVAPSGARLGPSPHLQALLQDRPHFMHQLSTVDAHAQTPVLQVRPLDNPAMISLPPPSAATGVFSLKARPGLPPGINVASLEWVSREPALLCTFPRSGTPRKDSNLLAAPQGSYPLLANGVCKWPGCEKVFEEPEEFLKHCQADHLLDEKGKAQCLLQREVVQSLEQQLELEKEKLGAMQAHLAGKMALAKAPSVASMDKSSCCIVATSTQGSVLPAWSAPREAPDGGLFAVRRHLWGSHGNSSFPEFFHNMDYFKYHNMRPPFTYATLIRWAILEAPERQRTLNEIYHWFTRMFAYFRNHPATWKNAIRHNLSLHKCFVRVESEKGAVWTVDEFEFRKKRSQRPNKCSNPCP
Turning to B1, the expression_or_secretion result in data set [1] (glycan gained) is given as “increases”. In data set [2] (glycan gained), the degradation_or_half_life result is given as “increases”.

B2: FOXP3: ST045849 (protein)
parent chain: B1 parent chain
Turning to B2, the expression_or_secretion entry in data set [1] (glycan lost) is “decreases”. Besides, in data set [2] (glycan lost), the degradation_or_half_life entry is given as “decreases”.

B3: FOXP3: OGA overexpression (protein)
parent chain: B1 parent chain
With B3, the expression_or_secretion result in data set [1] (glycan lost) is “decreases”. For the same protein, the degradation_or_half_life entry in data set [2] (glycan lost) is reported as “decreases”.

B4: FOXP3: OGT overexpression (protein)
parent chain: B1 parent chain
With B4, the expression_or_secretion entry in data set [1] (glycan gained) is given as “increases”. The degradation_or_half_life entry in data set [2] (glycan gained) is “increases”.

B5: FOXP3: FOXP3-5A (protein)
parent chain: B1 parent chain
As for B5, in data set [3], the expression_or_secretion result is “decreases”. Moreover, the degradation_or_half_life result in data set [4] is reported as “decreases”. Further, the “other: OGT-induced transcriptional suppression activity” value in data set [5] is reported as “abolishes”.
